T1: ICAM-R mutant F21V/AS (human, UniProt P32942 30-547)
T1 construct: on transfected COS cells
T1 chain: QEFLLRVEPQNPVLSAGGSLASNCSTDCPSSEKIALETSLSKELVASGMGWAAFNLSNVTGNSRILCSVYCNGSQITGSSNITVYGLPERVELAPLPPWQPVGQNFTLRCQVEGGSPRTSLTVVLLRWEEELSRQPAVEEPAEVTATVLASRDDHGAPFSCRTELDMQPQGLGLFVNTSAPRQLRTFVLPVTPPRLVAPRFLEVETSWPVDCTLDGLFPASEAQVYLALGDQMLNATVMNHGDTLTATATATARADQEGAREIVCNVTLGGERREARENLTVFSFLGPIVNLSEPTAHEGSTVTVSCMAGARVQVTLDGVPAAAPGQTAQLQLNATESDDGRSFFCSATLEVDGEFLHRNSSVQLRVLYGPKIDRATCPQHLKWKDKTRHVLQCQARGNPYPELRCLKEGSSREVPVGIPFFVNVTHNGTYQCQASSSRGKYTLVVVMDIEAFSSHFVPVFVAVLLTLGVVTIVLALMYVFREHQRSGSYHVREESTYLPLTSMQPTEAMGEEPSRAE

T2: macaque ICAM-R on peripheral blood leukocytes (Macaca fascicularis, UniProt A0A2K5TJA8 30-547)
T2 construct: whole, on cells; also called monkey PBL; macaque leukocytes
T2 sequence: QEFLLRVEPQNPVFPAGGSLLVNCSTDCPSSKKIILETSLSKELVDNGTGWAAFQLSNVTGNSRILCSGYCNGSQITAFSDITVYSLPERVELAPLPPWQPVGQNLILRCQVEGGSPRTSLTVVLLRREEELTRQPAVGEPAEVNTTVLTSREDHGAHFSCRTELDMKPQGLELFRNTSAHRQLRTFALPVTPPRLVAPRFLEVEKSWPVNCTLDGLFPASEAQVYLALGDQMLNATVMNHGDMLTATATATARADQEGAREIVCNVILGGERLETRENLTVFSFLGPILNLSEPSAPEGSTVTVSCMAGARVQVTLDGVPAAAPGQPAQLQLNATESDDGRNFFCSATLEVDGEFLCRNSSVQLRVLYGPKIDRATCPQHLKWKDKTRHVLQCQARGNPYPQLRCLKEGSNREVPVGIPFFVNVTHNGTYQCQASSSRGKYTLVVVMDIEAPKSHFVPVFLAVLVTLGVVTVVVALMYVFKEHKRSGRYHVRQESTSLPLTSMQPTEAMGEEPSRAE

T3: ICAM-R/IgG chimera, wild type (human, UniProt P32942 30-485)
T3 construct: also called ICAM-3/IgG; ICAM-R/Ig fusion protein
T3 chain: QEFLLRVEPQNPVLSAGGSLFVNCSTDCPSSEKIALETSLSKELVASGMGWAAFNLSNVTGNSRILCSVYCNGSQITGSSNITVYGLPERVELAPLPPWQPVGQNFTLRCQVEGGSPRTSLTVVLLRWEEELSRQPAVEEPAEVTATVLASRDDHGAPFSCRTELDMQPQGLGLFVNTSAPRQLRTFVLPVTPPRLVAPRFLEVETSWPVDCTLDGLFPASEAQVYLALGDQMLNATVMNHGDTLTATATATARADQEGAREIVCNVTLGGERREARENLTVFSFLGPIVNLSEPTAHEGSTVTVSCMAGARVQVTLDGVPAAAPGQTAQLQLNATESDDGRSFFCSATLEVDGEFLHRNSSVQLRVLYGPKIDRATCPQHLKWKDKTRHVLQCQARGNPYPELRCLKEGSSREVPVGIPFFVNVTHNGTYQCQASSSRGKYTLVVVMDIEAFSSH

B1: soluble human ICAM-R (receptor)
chain: T3 chain
notes: baculovirus, Sf-9 cells, lentil lectin purified; also called shICAM-R; soluble ICAM-R
B2: monoclonal antibody ICR-8.1 (antibody, mouse IgG1, V domains shown)
VH: EIQLQQTGPELVKPGASVKISCKASGYSFTDCIILWVKQSHGKGLEWIGKINPYFGTTTYNLKFKGKATLTVDKSSSTAHMQLNSLTSEDSAVYYCARKEAYPDAMDYWGQGTSVTVSS
VL: DAVMTQTPLSLPVSLGDQASISCRSSQSLVHSNGDTYLHWYLQKPGQSPQLLIYKVSNRFSGVPDRFSGSGSGTDFTLKLSRVEAEDLGVYFCSQSTHVPYTFGGGTKLEIK
notes: murine IgG1, kappa; hybridoma ATCC HB 11232; also called 46D7E
B3: humanized ICR-1.1 antibody HuVHK/HuVKP (antibody, human IgG4, V domains shown)
VH: QVQLVQSGAEVKKPGASVKVSCKASGYTFTVYWMHWVRQAPGQGLEWMGYINPNTDYTEYNQRFQDRVTITADKSTSTAYMELSSLRSEDTAVYYCARWGGNSYGLDYWGQGTLVTVSS
VL: DIQMTQSPSSLSASVGDRVTITCSASSSVSYIYWYQQKPGKAPKPLIYLTSNLASGVPSRFSGSGSGTDFTLTISSLQPEDFATYYCQQWKSIPLTFGQGTKLEIK
notes: human IgG4, human kappa
B4: monoclonal antibody ICR-1.1 (antibody, mouse IgG2a, V domains shown)
VH: QVQLQQSGAELAKPGASVKMSCKASGYTFTVYWMHWVKQRPGQGLEWIGYINPNTDYTEYNQRFQDKATLTADKSSSTAYMQLSSLTSEDSAVYYCARWGGNSYGLDYWGQGTSVTVSS
VL: QIVLTQSPALMSASPGEKVTMTCSASSSVSYIYWYQQKPRSSPKPWIYLTSNLASGVPARFSGSGSGASYSLTISIMEAEDAATYYCQQWKSIPLTFGAGTKLELK
notes: murine IgG2a, kappa; hybridoma ATCC HB 11053; also called 26E3D; 26E3D-1
B5: ICAM-2/IgG fusion protein (Fc fusion, not shown: a dimerising Fc or GST)
chain: KVFEVHVRPKKLAVEPKGSLEVNCSTTCNQPEVGGLETSLDKILLDEQAQWKHYLVSNISHDTVLQCHFTCSGKQESMNSNVSVYQPPRQVILTLQPTLVAVGKSFTIECRVPTVEPLDSLTLFLFRGNETLHYETFGKAAPAPQEATATFNSTADREDGHRNFSCLAVLDLMSRGGNIFHKHSAPKMLEIYEPVSDSQ

Assays:
Gp 150,95 (CD18/CD11c) = biological target: T4, Gp 150,95 (CD18/CD11c) (UniProt P20702 20-1163; P05107 23-769); assay: shICAM-R coated fluorescent beads on wells coated with purified Gp 150,95
T4 construct: purified, coated on plastic

ICAM-R mutant F21V/AS = biological target: T1, ICAM-R mutant F21V/AS; assay: FACS on COS transfectants
[1] = biological target: T2, macaque ICAM-R on peripheral blood …; assay: FACS on Macaca fascicularis PBL
[2] = biological target: T3, ICAM-R/IgG chimera, wild type; assay: ELISA on ICAM-R/Ig fusion protein
soluble human ICAM-R = biological target: B1; assay: ELISA on coated baculovirus soluble ICAM-R
Mac-1 (CD18/CD11b) = Mac-1 (CD18/CD11b) (UniProt P11215 17-1152; P05107 23-769); assay: neutrophil adhesion to coated chimeras with blocking antibodies

T4 sequence (P20702 20-1163 limits assumed, chain 1 of 2): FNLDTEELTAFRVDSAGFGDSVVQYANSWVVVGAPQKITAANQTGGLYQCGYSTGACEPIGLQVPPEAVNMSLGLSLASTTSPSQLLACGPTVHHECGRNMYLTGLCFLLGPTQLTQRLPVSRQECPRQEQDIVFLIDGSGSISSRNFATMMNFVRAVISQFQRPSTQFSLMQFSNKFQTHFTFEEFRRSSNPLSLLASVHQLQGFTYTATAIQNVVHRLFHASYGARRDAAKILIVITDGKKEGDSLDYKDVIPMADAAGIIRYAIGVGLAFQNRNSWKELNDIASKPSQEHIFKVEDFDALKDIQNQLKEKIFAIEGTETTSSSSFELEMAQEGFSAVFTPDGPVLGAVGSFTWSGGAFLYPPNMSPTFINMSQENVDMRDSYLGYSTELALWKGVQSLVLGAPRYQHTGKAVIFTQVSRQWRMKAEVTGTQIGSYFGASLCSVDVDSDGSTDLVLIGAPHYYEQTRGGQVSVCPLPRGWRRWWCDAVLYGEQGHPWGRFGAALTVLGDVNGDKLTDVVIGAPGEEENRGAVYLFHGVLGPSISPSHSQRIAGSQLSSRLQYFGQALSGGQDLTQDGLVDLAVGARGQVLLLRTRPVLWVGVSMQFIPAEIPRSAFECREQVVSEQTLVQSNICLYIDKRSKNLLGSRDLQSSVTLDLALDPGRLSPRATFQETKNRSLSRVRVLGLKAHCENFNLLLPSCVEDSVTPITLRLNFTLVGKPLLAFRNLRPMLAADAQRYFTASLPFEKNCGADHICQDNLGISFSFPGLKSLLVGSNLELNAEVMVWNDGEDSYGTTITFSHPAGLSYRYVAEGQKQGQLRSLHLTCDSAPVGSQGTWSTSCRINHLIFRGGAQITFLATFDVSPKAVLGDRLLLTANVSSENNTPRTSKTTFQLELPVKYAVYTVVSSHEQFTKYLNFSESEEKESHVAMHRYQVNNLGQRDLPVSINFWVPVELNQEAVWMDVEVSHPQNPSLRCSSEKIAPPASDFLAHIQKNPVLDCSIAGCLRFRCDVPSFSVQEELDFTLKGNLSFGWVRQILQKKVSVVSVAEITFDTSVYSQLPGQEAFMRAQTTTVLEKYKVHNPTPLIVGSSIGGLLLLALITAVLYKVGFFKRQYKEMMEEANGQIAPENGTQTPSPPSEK
T4 sequence (P05107 23-769 limits assumed, chain 2 of 2): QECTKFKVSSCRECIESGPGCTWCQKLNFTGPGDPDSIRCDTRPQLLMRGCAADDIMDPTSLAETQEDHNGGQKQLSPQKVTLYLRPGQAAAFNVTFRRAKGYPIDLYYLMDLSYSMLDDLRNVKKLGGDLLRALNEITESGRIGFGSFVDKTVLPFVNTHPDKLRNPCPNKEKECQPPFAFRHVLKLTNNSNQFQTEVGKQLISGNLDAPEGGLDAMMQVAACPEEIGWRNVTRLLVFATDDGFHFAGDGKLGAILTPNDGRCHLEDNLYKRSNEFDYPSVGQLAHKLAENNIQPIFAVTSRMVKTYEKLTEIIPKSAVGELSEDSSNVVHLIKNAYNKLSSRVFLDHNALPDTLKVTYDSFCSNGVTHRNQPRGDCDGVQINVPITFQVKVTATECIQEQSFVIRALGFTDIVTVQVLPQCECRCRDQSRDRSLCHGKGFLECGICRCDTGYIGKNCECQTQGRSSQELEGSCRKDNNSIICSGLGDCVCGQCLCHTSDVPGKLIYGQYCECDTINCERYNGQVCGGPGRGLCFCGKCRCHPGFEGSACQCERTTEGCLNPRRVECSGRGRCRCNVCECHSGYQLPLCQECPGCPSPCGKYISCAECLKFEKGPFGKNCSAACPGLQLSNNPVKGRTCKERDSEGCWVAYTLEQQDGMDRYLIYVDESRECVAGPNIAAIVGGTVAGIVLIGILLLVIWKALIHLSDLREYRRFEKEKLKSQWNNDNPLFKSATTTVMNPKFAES

## B1
Gp 150,95 (CD18/CD11c)
  binding result: binds

## B2
ICAM-R mutant F21V/AS
  binding result: no binding
[1]
  binding result: no binding

## B3
[2]
  binding relative to the chimeric antibody (MuVH/MuVK): ≤ 50 % difference
Soluble human ICAM-R
  binding relative to the chimeric antibody (MuVH/MuVK): ≤ 50 % difference

## B4
ICAM-R mutant F21V/AS
  binding result: no binding
[1]
  binding result: no binding

## B5
Mac-1 (CD18/CD11b)
  binding result: binds

From US20030199423A1 (published 2003)
